Measurements from US20250382354A1 (INSTITUTE FOR RESEARCH IN BIOMEDICINE IRB, published 2025).

Assays:
[1] = molecular target: C-terminally truncated SARS-CoV-2 S protein (pSARS-CoV2-Strunc), ancestral (SARS-CoV-2, UniProt P0DTC2 14-1273); experiment: cell-based or functional assay
CRCoV-240/05 HR2 peptide = molecular target: T1, CRCoV-240/05 HR2 peptide (CRCoV-240/05); experiment: peptide ELISA
T1 construct: domain: HR2 peptide

HKU24 HR2 peptide [2] = molecular target: HKU24 HR2 peptide (HKU24); experiment: peptide ELISA
Eidolon HR2 peptide = Eidolon HR2 peptide (Eidolon); experiment: peptide ELISA
[3] = molecular target: SARS-CoV-2 SD1-RBD Ancestral (SARS-CoV-2 (ancestral), UniProt P0DTC2 319-591); experiment: SPR, antigen immobilized, Fab injected
[4] = molecular target: C-terminally truncated SARS-CoV-2 S protein (pSARS-CoV2-Strunc), ancestral (SARS-CoV-2, UniProt P0DTC2 14-1273); experiment: cell-based or functional assay; remark: listed apart in the source
HKU24 HR2 peptide [5] = molecular target: HKU24 HR2 peptide (HKU24); experiment: peptide ELISA; remark: listed apart in the source
Rosettus HR2 peptide = Rosettus HR2 peptide (Rosettus); experiment: peptide ELISA
Erinaceus HR2 peptide = Erinaceus HR2 peptide (Erinaceus); experiment: peptide ELISA

B1: CV3-25 (antibody, V domains shown)
VH: QVQLVESGAEVKKPGESLKISCKGSGYTFTRYWIGWVRQMPGKGLEWMGIIYPGDSDTRYSPSFQGHVTISADKSISTAYLQWNSLKASDTAMYYCARLPQYCSNGVCQRWFDPWGQGTLVTVSS
VL: EIVLTQSPSSVSASVGDRVTITCRASQGISSWLAWYQQKPGKAPKLLIYAASSLQSGVPSRFSGSGSGTDFTLTISSLQPEDFATYYCQQGNSFPYTFGQGTNLEIK
Ancestral Pseudovirus IC50 [1]: 0.223 µg/mL | Ancestral Pseudovirus IC50 (on cells with [not given]) [1]: 0.375 µg/mL | EC50 (CRCoV-240/05 HR2 peptide): 1.92 µg/mL | EC50 (HKU24 HR2 peptide [2]): 0.0521 µg/mL | EC50 (Eidolon HR2 peptide): 0.0351 µg/mL

B2: sd1.040 Fab (Fab, V domains shown)
VH: QVQLVQSGAEVKKPGASVKVSCKASGYTFTSFYIHWVRQAPGQGLEWMGIIDPSGGSTSYPQKFQGRVTMTRDTSTSTVYMDLSSLRSEDTAVYYCTRDGSAGDNSWFDPWGQGTLVTVSS
VL: not shown
Kd [3]: 4.2 nM

B3: hr2.094 (antibody, V domains shown)
VH: EVQLVESGGGLVQPGGSLRLSCAASGFTFSTFWMTWVRQAPGKGLEWVANIKSDGSEKYYVDSVKGRFTISRDNAKNSLYLQMNSLRAEDTAVYYCATWFGLHWGQGTLVTVSS
VL: DIVMTQSPDSLAVSLGERASINCKSSQTVLYSSNNKNYLAWYQQKPGQPPKLLIHWASTRDSGVPDRFSGSGSGTDFTLTISSLQAEDVAVYYCQQYHRIPWTFGRGTKVEIK
Ancestral Pseudovirus IC50 [4]: 2.95 µg/mL | EC50 (HKU24 HR2 peptide [5]): 0.012 µg/mL | EC50 (Rosettus HR2 peptide): 0.656 µg/mL

B4: hr2.014 (antibody, V domains shown)
VH: QVQLVQSGAEVKKPGASVKVSCKASGYTFTTYAVHWLRQVPGQRPEWIGWINAANGNTKYSEKFQGRVTITRDTSASTAYMDLRSLRSEDTAVYYCARLLVVRDDPYYYGMDVWGQGTTVTVSS
VL: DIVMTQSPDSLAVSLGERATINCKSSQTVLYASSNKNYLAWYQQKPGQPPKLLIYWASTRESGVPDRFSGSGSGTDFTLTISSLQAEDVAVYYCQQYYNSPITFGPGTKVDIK
Ancestral Pseudovirus IC50 [4]: 0.355 µg/mL | EC50 (Erinaceus HR2 peptide): 0.117 µg/mL
